± gives the standard deviation.
Assay: protein stability index of a GFP-peptide fusion (GPS, HEK-293T) (PSI 1-6); higher = more stable
Conditions: c terminus: a fixed tail appended
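Note: 24-mer peptide tiles fused after GFP, lentivirally expressed, FACS-sorted into six equal bins by GFP/DsRed ratio, decoded by Illumina sequencing, PSI is the read-weighted mean bin number.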

Row | Sequence | protein stability index (treatment: DMSO) | protein stability index (treatment: MLN4924 1 uM, 8 h)
1 | SKAGPTRIFTSNTHSSVVLQGFDQ [KLHL13] | 3.53 ± 0.32 | 3.32 ± 0.12
2 | RGGDGEVASAPLQPPVPSLSEVKP [TRADD] | 5.34 ± 0.36 | 5.04 ± 0.58
3 | SSLEFTELLTLVNRKVSQRRVDFC [CASP6] | 2.37 ± 0.43 | 2.32 ± 0.087
4 | FKAKEAAALGSRGSCSTEVEKETQ [ATP6V1G1] | 2.94 ± 0.44 | 3.26 ± 0.27
5 | EPTEVEEVVPALEPTETLLSEKEI [BCL2L13] | 5.5 ± 0.35 | 5.71 ± 0.12
6 | PNIRNMAPNSLSAPTMLHNSSGDF [TRAF3IP2] | 4.16 ± 0.34 | 4.43 ± 0.19
7 | CGWPRGKDAPCYESDTDIYETVAA [DRICH1] | 3.18 ± 0.23 | 3.31 ± 0.27
8 | LRNNQISHKGAEELALALKGNTTL [LRRC45] | 3.92 ± 0.14 | 4.05 ± 0.21
9 | YVWVPIEQCLPSLENSKYCRFNQD [ATE1] | 2.3 ± 0.4 | 2.19 ± 0.12
10 | QVLFDKVCEHLNLLEKDYFGLTYR [EPB41L3] | 2.4 ± 0.13 | 2.55 ± 0.28
11 | VLSNMEKLFCIPVHGIRSVGTAAV [IMPA1] | 2.09 ± 0.47 | 2.12 ± 0.059
12 | QFGLLSFFFAVLHAIYSLSYPMRR [STEAP1] | 3.28 ± 1 | 2.058 ± 0.016
13 | PPLTRQIAVKTLGIGKNVICDRTA [GFOD1] | 3.71 ± 0.22 | 3.92 ± 0.082
14 | NENDFYDGAWCAGRNDLQQWIEVD [CPXM2] | 4.22 ± 0.46 | 4.05 ± 0.3
15 | KLGALLSRCRKLVEYFQQSAVAMY [ZBED1] | 3.12 ± 0.31 | 3.1 ± 0.21
16 | ECYDPRTQQWTAICPLKERRFGAV [GAN] | 2.69 ± 0.18 | 2.62 ± 0.3
17 | NVSLGPGVVVEDGVCIRRCTVLRD [GMPPB] | 3.54 ± 0.27 | 3.44 ± 0.29
18 | RLEELTNRLASLQQENKVLKIELE [CCDC6] | 3.65 ± 0.23 | 3.78 ± 0.38
19 | SADRLTVRCGLLGSLGPVPVLRFD [TRIM14] | 2.12 ± 0.31 | 2.25 ± 0.31
20 | LEQFVAILPKELQTWVRDHHPENG [ZNF24] | 3.2 ± 0.1 | 3.23 ± 0.21
21 | LSLNMDNLQDTLEAASFLQILPVL [KLHL13] | 2.66 ± 0.52 | 2.72 ± 0.45
22 | STGTSRWPSAKSAGWTLATLGEQG [SCNN1D] | 3.17 ± 0.16 | 3.16 ± 0.31
23 | NCGKSFSRLTALTLHQRTHTEERP [ZNF449] | 3.38 ± 0.27 | 3.36 ± 0.26

Row | Sequence | protein stability index (treatment: DMSO) | protein stability index (treatment: MLN4924 1 uM, 8 h)
24 | YFLLCDVLPEDRILREELQKQRLR [ZNF277] | 2.37 ± 0.3 | 2.28 ± 0.54
25 | NRVSWWGSTLAMLQRLKEQQFVIA [ZBED1] | 2.41 ± 0.38 | 2.48 ± 1
26 | DDIEEKTPISNEVEMESEEQIAER [KMT2E] | 5.8 ± 0.16 | 5.66 ± 0.26
27 | PMPWLVLSEIFPGGIRGRAMALTS [SLC2A12] | 2.5 ± 0.16 | 2.33 ± 0.38
28 | YIYYNEKYGGPNHHLPLPDNWKSQ [CPN1] | 2.46 ± 0.75 | 2.35 ± 0.37
29 | VPVRRPARRRQSAGPWPRPKGSLS [RASAL3] | 4.73 ± 0.25 | 4.68 ± 0.23
30 | EANNLAAAASAKDIYYNNMEEVCG [ATL3] | 4.69 ± 0.26 | 4.68 ± 0.18
31 | SEEMVKMVLSRPCHPDDQFTTSIL [INTS3] | 2.94 ± 0.34 | 2.98 ± 0.39
32 | TRHVFTCGRRGIKVWSLTGQVAED [TLE6] | 2.62 ± 0.14 | 2.68 ± 0.25
33 | TWKKNRRQLAYSTVGTPDYIAPEV [STK38L] | 3.39 ± 0.2 | 3.48 ± 0.4
34 | GHSFCRPCLCLSWEEAQSPANCPA [TRIM43] | 3.47 ± 0.34 | 3.66 ± 0.29
35 | TGECKELEKKNEALKERADSLAKE [ATF4] | 5.54 ± 0.3 | 5.59 ± 0.18
36 | GPGSKRDAHFCAVCSDYASGYHYG [ESR2] | 2.42 ± 0.2 | 2.65 ± 0.32
37 | PTPSTDAEYPANGSGADRIYDLNI [NCK2] | 4.69 ± 0.21 | 4.71 ± 0.19
38 | SVPPVAGAPSVGQPGAGFGMPPAG [SNAP91] | 4.38 ± 0.24 | 4.38 ± 0.058
39 | CADVLFILQDQEHIFAHRIYLATS [RHOBTB1] | 2.93 ± 0.44 | 2.89 ± 0.48
40 | ISGGFDRTVAIWDVAEGYRKLSLK [WDR88] | 3.09 ± 0.49 | 3.02 ± 0.36
41 | LLYWGIAEDHLDGCCKRRYLQKIE [KCNG1] | 1.95 ± 0.33 | 2.3 ± 0.12
42 | AVLGLLLVLAAVVAWCYYSVSLRK [MYORG] | 2.69 ± 0.52 | 2.77 ± 0.78
43 | AWGFPENATAPRSPSHSPEHRRTA [ELOA2] | 5 ± 0.15 | 4.87 ± 0.16
44 | IETSALDSTNVEAAFQTILTEIYR [RAB11A] | 2.35 ± 0.074 | 2.44 ± 0.44
45 | LSFQEELLYWGIAEDHLDGCCKRR [KCNG1] | 2.35 ± 0.36 | 2.61 ± 0.26
46 | EKLLERQGQAKTPDSMFLAMLAVV [CDK11A] | 1.95 ± 0.21 | 2.2 ± 0.55

Row | Sequence | protein stability index (treatment: DMSO) | protein stability index (treatment: MLN4924 1 uM, 8 h)
47 | PSSLGPLLPLQREPLYNWQATKAS [BTBD1] | 3.36 ± 0.21 | 3.5 ± 0.14
48 | SVLMGHGVCMGLVAAACACGFTVA [OR10K2] | 2.9 ± 0.45 | 3.08 ± 0.41
49 | GRGGEPRAYFMSDTREEKRFLGEG [CHGB] | 4.23 ± 0.2 | 4.44 ± 0.27
50 | YQEASNLEQFVTRFLLKETLNQLQ [NECAB1] | 2.66 ± 0.81 | 2.44 ± 0.69
51 | QDVTVVGSAGRLLAVGTDLYGQRN [GFOD1] | 3.4 ± 0.26 | 3.63 ± 0.32
52 | EAVLHCHQMGVVHRDLKPENLLLA [CAMK2A] | 2.64 ± 0.27 | 2.58 ± 0.38
53 | LSEPDPSHTLEERVVHWYFKLLDK [SMOC2] | 2.61 ± 0.46 | 2.84 ± 0.29
54 | TPHTPKSLLSKARGIDSSSVKLRG [WEE1] | 4.26 ± 0.54 | 4.08 ± 0.28
55 | NVKMIVLICVIVFIIILFIVLFAT [VAMP8] | 2.27 ± 0.3 | 2.37 ± 0.27
56 | RSSEFYRVTTEQYQKAAEEVEAKF [CHCHD3] | 4.88 ± 0.32 | 4.78 ± 0.074
57 | CICGFTHDDGYMICCDKCSVWQHI [KMT2E] | 3.19 ± 0.39 | 3.29 ± 0.41
58 | MYDEKAHEWKSLAPMDAPRYQHGI [KLHL13] | 3.15 ± 0.21 | 3.4 ± 0.17
59 | EVQHLREEKSKQFLDLMETIDKQR [LRRC45] | 4.51 ± 0.32 | 4.49 ± 0.25
60 | VTQDGRKIYFTDSSSKWQRRDYLL [APMAP] | 2.51 ± 0.18 | 2.41 ± 0.63
61 | HAAASNGQINVVKHLLNLGVEIDE [ANKRD44] | 4.06 ± 0.35 | 4.16 ± 0.25
62 | VGYTALVGSDAESWGWDLGRSRLY [SPSB4] | 2.21 ± 0.076 | 2.56 ± 0.48
63 | VFRIFKLSRHSKGLQILGHTLRAS [KCNA4] | 2.39 ± 1 | 2.6 ± 0.68
64 | TPPPSPNTQTPVQPPPPPPPPPMQ [CCDC6] | 5.12 ± 0.084 | 5.26 ± 0.25
65 | SWEKVTGHNSPLYKRQEESGAAAS [CHIT1] | 4.77 ± 0.37 | 4.51 ± 0.32
66 | TSGKLLLEADELCDDGGDGRGAVV [ZBTB22] | 5.36 ± 0.29 | 5.31 ± 0.1
67 | DRSTEPDRLQVFHKRAIMPYGVYK [ATE1] | 3.44 ± 0.24 | 3.47 ± 0.26
68 | AAARAAQRRRRVENAGGSPSPEPA [RSAD1] | 5.25 ± 0.087 | 5.12 ± 0.44
69 | RSCGGGVTSQERHCLQQRRKSVPG [ADAMTSL2] | 4.58 ± 0.25 | 

Row | Sequence | protein stability index (treatment: DMSO) | protein stability index (treatment: MLN4924 1 uM, 8 h)
70 | GARARGVAMLGVFLVSAVAHEYIF [SOAT2] |  | 3.591 ± 0.02
71 | PALLFPATRGVPAKRLLDADDAAA [TRIB1] | 4.74 ± 0.23 | 4.67 ± 0.27
72 | GRATKRRKKSGDLKKAKVQVERMR [FBXO34] | 4.25 ± 0.072 | 4.26 ± 0.65
73 | DELVGLPFSSHTYSQASELPTDAV [FBXO34] | 4.95 ± 0.18 | 4.81 ± 0.081
74 | SLENTLTESEAHYSSQLSQVQSLI [KRT34] | 3.32 ± 0.093 | 3.42 ± 0.31
75 | LALCQRYYHRGHVDPANDTFDIDP [MCOLN1] | 3.11 ± 0.13 | 3.23 ± 0.29
76 | IQVVLNGMESYQEVTVQRNCCLTL [ZER1] | 3.21 ± 0.47 | 3.01 ± 0.73
77 | IRPDPRSRVTDPVGDIVSFMHSFE [FAF2] | 3.06 ± 0.42 | 3.09 ± 0.33
78 | PSVMDPGAFETVLASAYTGRLSMA [ZBTB22] | 2.3 ± 0.38 | 2.3 ± 0.17
79 | TTVGYGDMKPITVGGKIVGSLCAI [KCNA4] | 2.23 ± 0.47 | 2.4 ± 0.27
80 | RLAELEAQVRKLELERAQHELLLG [FBF1] | 2.97 ± 0.22 | 2.87 ± 0.14
81 | PNGSAAEPPTEAASREENQAGPEA [PALM] | 5.56 ± 0.35 | 5.4 ± 0.25
82 | LRKRKEIREDRDRARLDSMVLLIM [DLC1] | 2.08 ± 0.51 | 2.17 ± 0.34
83 | LYRSRMNSLEMTPAVRQRVIEEAK [HMOX1] | 4.04 ± 0.21 | 4.06 ± 0.26
84 | LHLESELAQTRAEGQRQAQEYEAL [KRT18] | 5.07 ± 0.2 | 5.08 ± 0.26
85 | PTTEPETEPEDDRGPVVPKHSTFG [GNAS] | 5.4 ± 0.18 | 5.27 ± 0.42
86 | LYRDDVLIKPSRVVAILAAACLLQ [GMCL1] | 3.05 ± 0.84 | 2.45 ± 0.18
87 | VAPPEDKESESEAKVDGETASDSE [CDS2] | 5.55 ± 0.23 | 5.61 ± 0.18
88 | RGLIPVKRGPSSRSGGPPPKKSAP [RBMY1A1] | 4.3 ± 0.58 | 4.73 ± 0.28
89 | STSLSFLDSCNSLTPKSTPVKTLP [MYBL2] | 3.9 ± 0.13 | 3.97 ± 0.36
90 | IKLREYEAALNSKDAALATALGDK [LMNB1] | 4.076 ± 0.039 | 4.38 ± 0.15

From the supplement of paper PMC10567573
